{
  "source": "patent US20240067944A1",
  "about": "(published 2024)",
  "binders": {"B1": {"name": "Cmpd #1 (monovalent anti-FX VHH polypeptide, VHH-1.1) (VHH)", "VHH": "EVQLVESGGGLVQPGGSLRLSCAASGSIGAFDAMGWYRQAPGKQRELVAGIMVSRGNTNYTDSVKGRFTISRDNAKNTVYLQMNSLKPEDTAVYYCKAVKRPGPGYLEVWGQGTLVTVSS", "notes": "No protractor"}},
  "experiment_in_all_cases": "ELISA, biotinylated 12-mer peptide on streptavidin, 2 ug/mL FLAG-tagged VHH, anti-FLAG-HRP",
  "key": {"TSSSGEAPDSIT": {"molecular_target": "T1, TSSSGEAPDSIT (human)", "T1 peptide": "TSSSGEAPDSIT-biotin", "description": "(§1) To determine whether the binding epitope of the anti-FX VHH polypeptide designated “cmpd #1” are located inside the activation peptide (AP) of human FX (SEQ ID NO:2), an ELISA assay was setup. 41 unique 12-mer peptide fragments spanning the 52 residues of the activation peptide with one amino acid spacing were immobilized in microtiter plate wells followed by incubation with the VHH polypeptide to be tested, and detection of bound ligand was performed by addition of a secondary HRP-labelled antibody.\n(§2) The peptides were C-terminally conjugated to biotin and 50 μL of 1 μg/mL peptide solution was used for immobilization in discrete wells of the microtiter plate which was pre-coated with 1 μg/mL streptavidin. Each well was washed with washing buffer (10 mM Tris, 150 mM NaCl, 2.5 mM CaCl₂), 0.05% Tween 20, pH 8.60) followed by addition of 50 μL of 2 μg/mL FLAG-tagged anti-FX VHH polypeptide or IgG antibody to be tested. After 1 hour non-bound VHH polypeptide was washed off using washing buffer.\n(§3) Bound anti-FX activation peptide ligand was detected by first binding a HRP-labelled secondary antibody (for FLAG-tagged VHH polypeptide: Anti-FLAG mAb M2-Peroxidase (HRP) (Sigma Aldrich, US) for 1 hour, and then adding 100 μL TMB-1 ELISA substrate (Kem-En-Tec Diagnostics, Denmark)."}, "SVAQATSSSGEA": {"molecular_target": "T2, SVAQATSSSGEA (human)", "T2 peptide": "SVAQATSSSGEA-biotin", "description": "as §1, §2, §3"}, "APDSITWKPYDA": {"molecular_target": "T3, APDSITWKPYDA (human)", "T3 peptide": "APDSITWKPYDA-biotin", "description": "as §1, §2, §3"}, "EAPDSITWKPYD": {"molecular_target": "T4, EAPDSITWKPYD (human)", "T4 peptide": "EAPDSITWKPYD-biotin", "description": "as §1, §2, §3"}, "PDSITWKPYDAA": {"molecular_target": "T5, PDSITWKPYDAA (human)", "T5 peptide": "PDSITWKPYDAA-biotin", "description": "as §1, §2, §3"}, "SSSGEAPDSITW": {"molecular_target": "T6, SSSGEAPDSITW (human)", "T6 peptide": "SSSGEAPDSITW-biotin", "description": "as §1, §2, §3"}, "YDAADLDPTENP": {"molecular_target": "T7, YDAADLDPTENP (human)", "T7 peptide": "YDAADLDPTENP-biotin", "description": "as §1, §2, §3"}, "DLDPTENPFDLL": {"molecular_target": "T8, DLDPTENPFDLL (human)", "T8 peptide": "DLDPTENPFDLL-biotin", "description": "as §1, §2, §3"}, "AADLDPTENPFD": {"molecular_target": "T9, AADLDPTENPFD (human)", "T9 peptide": "AADLDPTENPFD-biotin", "description": "as §1, §2, §3"}, "FNQTQPERGDNN": {"molecular_target": "T10, FNQTQPERGDNN (human)", "T10 peptide": "FNQTQPERGDNN-biotin", "description": "as §1, §2, §3"}, "ADLDPTENPFDL": {"molecular_target": "T11, ADLDPTENPFDL (human)", "T11 peptide": "ADLDPTENPFDL-biotin", "description": "as §1, §2, §3"}, "NPFDLLDFNQTQ": {"molecular_target": "T12, NPFDLLDFNQTQ (human)", "T12 peptide": "NPFDLLDFNQTQ-biotin", "description": "as §1, §2, §3"}, "KPYDAADLDPTE": {"molecular_target": "T13, KPYDAADLDPTE (human)", "T13 peptide": "KPYDAADLDPTE-biotin", "description": "as §1, §2, §3"}, "DPTENPFDLLDF": {"molecular_target": "T14, DPTENPFDLLDF (human)", "T14 peptide": "DPTENPFDLLDF-biotin", "description": "as §1, §2, §3"}, "NQTQPERGDNNL": {"molecular_target": "T15, NQTQPERGDNNL (human)", "T15 peptide": "NQTQPERGDNNL-biotin", "description": "as §1, §2, §3"}, "ENPFDLLDFNQT": {"molecular_target": "T16, ENPFDLLDFNQT (human)", "T16 peptide": "ENPFDLLDFNQT-biotin", "description": "as §1, §2, §3"}, "LDPTENPFDLLD": {"molecular_target": "T17, LDPTENPFDLLD (human)", "T17 peptide": "LDPTENPFDLLD-biotin", "description": "as §1, §2, §3"}, "AQATSSSGEAPD": {"molecular_target": "T18, AQATSSSGEAPD (human)", "T18 peptide": "AQATSSSGEAPD-biotin", "description": "as §1, §2, §3"}, "ITWKPYDAADLD": {"molecular_target": "T19, ITWKPYDAADLD (human)", "T19 peptide": "ITWKPYDAADLD-biotin", "description": "as §1, §2, §3"}, "GEAPDSITWKPY": {"molecular_target": "T20, GEAPDSITWKPY (human)", "T20 peptide": "GEAPDSITWKPY-biotin", "description": "as §1, §2, §3"}, "TQPERGDNNLTR": {"molecular_target": "T21, TQPERGDNNLTR (human)", "T21 peptide": "TQPERGDNNLTR-biotin", "description": "as §1, §2, §3"}, "SITWKPYDAADL": {"molecular_target": "T22, SITWKPYDAADL (human)", "T22 peptide": "SITWKPYDAADL-biotin", "description": "as §1, §2, §3"}, "PYDAADLDPTEN": {"molecular_target": "T23, PYDAADLDPTEN (human)", "T23 peptide": "PYDAADLDPTEN-biotin", "description": "as §1, §2, §3"}},
  "note": "No end group written: not given here.",
  "data": [
    {"binder": "B1", "values": [
      {"measurement": "ELISA signal normalized relative to the background signal", "setting": "TSSSGEAPDSIT", "result": "0.77 relative to background"},
      {"measurement": "ELISA signal normalized relative to the background signal", "setting": "SVAQATSSSGEA", "result": "0.96 relative to background"},
      {"measurement": "ELISA signal normalized relative to the background signal", "setting": "APDSITWKPYDA", "result": "1.06 relative to background"},
      {"measurement": "ELISA signal normalized relative to the background signal", "setting": "EAPDSITWKPYD", "result": "0.97 relative to background"},
      {"measurement": "ELISA signal normalized relative to the background signal", "setting": "PDSITWKPYDAA", "result": "1.05 relative to background"},
      {"measurement": "ELISA signal normalized relative to the background signal", "setting": "SSSGEAPDSITW", "result": "0.86 relative to background"},
      {"measurement": "ELISA signal normalized relative to the background signal", "setting": "YDAADLDPTENP", "result": "0.87 relative to background"},
      {"measurement": "ELISA signal normalized relative to the background signal", "setting": "DLDPTENPFDLL", "result": "1 relative to background"},
      {"measurement": "ELISA signal normalized relative to the background signal", "setting": "AADLDPTENPFD", "result": "0.88 relative to background"},
      {"measurement": "ELISA signal normalized relative to the background signal", "setting": "FNQTQPERGDNN", "result": "1 relative to background"},
      {"measurement": "ELISA signal normalized relative to the background signal", "setting": "ADLDPTENPFDL", "result": "0.91 relative to background"},
      {"measurement": "ELISA signal normalized relative to the background signal", "setting": "NPFDLLDFNQTQ", "result": "3.13 relative to background"},
      {"measurement": "ELISA signal normalized relative to the background signal", "setting": "KPYDAADLDPTE", "result": "0.8 relative to background"},
      {"measurement": "ELISA signal normalized relative to the background signal", "setting": "DPTENPFDLLDF", "result": "4.16 relative to background"},
      {"measurement": "ELISA signal normalized relative to the background signal", "setting": "NQTQPERGDNNL", "result": "0.92 relative to background"},
      {"measurement": "ELISA signal normalized relative to the background signal", "setting": "ENPFDLLDFNQT", "result": "4 relative to background"},
      {"measurement": "ELISA signal normalized relative to the background signal", "setting": "LDPTENPFDLLD", "result": "1.11 relative to background"},
      {"measurement": "ELISA signal normalized relative to the background signal", "setting": "AQATSSSGEAPD", "result": "0.97 relative to background"},
      {"measurement": "ELISA signal normalized relative to the background signal", "setting": "ITWKPYDAADLD", "result": "1.1 relative to background"},
      {"measurement": "ELISA signal normalized relative to the background signal", "setting": "GEAPDSITWKPY", "result": "0.93 relative to background"},
      {"measurement": "ELISA signal normalized relative to the background signal", "setting": "TQPERGDNNLTR", "result": "1.05 relative to background"},
      {"measurement": "ELISA signal normalized relative to the background signal", "setting": "SITWKPYDAADL", "result": "1.08 relative to background"},
      {"measurement": "ELISA signal normalized relative to the background signal", "setting": "PYDAADLDPTEN", "result": "0.83 relative to background"}
    ]}
  ]
}
